Reference: the supplement of paper PMC9112550, “Optimization of the antimicrobial peptide Bac7 by deep mutational scanning” (BMC Biology, 2022)

Tested on: Escherichia coli TOP10
Assay: shrunken log2 fold change of peptide-encoding DNA abundance (4.5 h post-induction vs induction); higher = less antimicrobial activity (less host growth inhibition)
Details: time post-induction: 4.5 h; library: site-saturation at positions 5, 18, 19, 20
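Further: peptides expressed intracellularly from a pBAD plasmid library in pooled LB shake-flask culture, induced with 0.3% L-arabinose, DNA abundance read by NGS, three biological replicates, DESeq2 with apeglm shrinkage.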

Sequence	shrunken log2 fold change
RRIRERPPRLPRPRPRPDSNPRP	-0.00994
RRIRDRPPRLPRPRPRPALVPRP	0.0217
RRIRHRPPRLPRPRPRPYEMPRP	-0.383
RRIRKRPPRLPRPRPRPFHPPRP	-0.158
RRIRHRPPRLPRPRPRPAYLPRP	-0.323
RRIRARPPRLPRPRPRPTRFPRP	0.737
RRIRYRPPRLPRPRPRPPGFPRP	0.184
RRIRKRPPRLPRPRPRPHKEPRP	-0.0849
RRIRGRPPRLPRPRPRPHKRPRP	0.34
RRIRPRPPRLPRPRPRPVRHPRP	0.119
RRIRGRPPRLPRPRPRPHGVPRP	0.00437
RRIRNRPPRLPRPRPRPCSMPRP	-0.132
RRIRFRPPRLPRPRPRPVPDPRP	-0.136
RRIRQRPPRLPRPRPRPNEKPRP	-0.0522
RRIRNRPPRLPRPRPRPTCNPRP	-0.288
RRIRRRPPRLPRPRPRPQGLPRP	0.143
RRIRNRPPRLPRPRPRPEVIPRP	0.00635
RRIRDRPPRLPRPRPRPGAMPRP	0.408
RRIRSRPPRLPRPRPRPDTMPRP	-0.462
RRIRTRPPRLPRPRPRPDYVPRP	-0.0882
RRIRSRPPRLPRPRPRPKRYPRP	-0.163
RRIRERPPRLPRPRPRPMLIPRP	-0.266
RRIRPRPPRLPRPRPRPWPIPRP	0.054
RRIRPRPPRLPRPRPRPLTAPRP	0.212
RRIRCRPPRLPRPRPRPHERPRP	-0.0193

Sequence	shrunken log2 fold change
RRIRSRPPRLPRPRPRPPPTPRP	0.914
RRIRARPPRLPRPRPRPEFYPRP	0.329
RRIRTRPPRLPRPRPRPQVMPRP	-0.133
RRIRMRPPRLPRPRPRPMIMPRP	0.421
RRIRRRPPRLPRPRPRPPLSPRP	0.996
RRIRARPPRLPRPRPRPNCGPRP	0.281
RRIRMRPPRLPRPRPRPIVDPRP	0.35
RRIRLRPPRLPRPRPRPRPFPRP	0.358
RRIRLRPPRLPRPRPRPERPPRP	0.157
RRIRDRPPRLPRPRPRPNSAPRP	-1.36
RRIRLRPPRLPRPRPRPEESPRP	0.012
RRIRIRPPRLPRPRPRPPPSPRP	0.399
RRIRLRPPRLPRPRPRPHKEPRP	0.0165
RRIRIRPPRLPRPRPRPSMFPRP	-0.801
RRIRLRPPRLPRPRPRPKMKPRP	-0.476
RRIRTRPPRLPRPRPRPRNWPRP	0.325
RRIRGRPPRLPRPRPRPQTEPRP	0.149
RRIRERPPRLPRPRPRPPDVPRP	-0.108
RRIRCRPPRLPRPRPRPQYPPRP	-0.329
RRIRIRPPRLPRPRPRPYGVPRP	-0.266
RRIRDRPPRLPRPRPRPDQNPRP	-0.0888
RRIRDRPPRLPRPRPRPFLYPRP	1.81
RRIRLRPPRLPRPRPRPYHRPRP	0.0373
RRIRERPPRLPRPRPRPWMLPRP	-0.234
RRIRRRPPRLPRPRPRPYFHPRP	-0.387

Sequence	shrunken log2 fold change
RRIRLRPPRLPRPRPRPHVWPRP	0.198
RRIRSRPPRLPRPRPRPHQWPRP	-0.144
RRIRYRPPRLPRPRPRPSITPRP	-0.857
RRIRDRPPRLPRPRPRPFRMPRP	-0.125
RRIRYRPPRLPRPRPRPQPQPRP	-0.0927
RRIRKRPPRLPRPRPRPYDGPRP	-0.0976
RRIRFRPPRLPRPRPRPAKYPRP	-0.381
RRIRCRPPRLPRPRPRPQVFPRP	-0.13
RRIRYRPPRLPRPRPRPGCDPRP	-0.282
RRIRARPPRLPRPRPRPCNWPRP	-0.0619
RRIRYRPPRLPRPRPRPRFFPRP	-0.0565
RRIRMRPPRLPRPRPRPGCQPRP	0.719
RRIRMRPPRLPRPRPRPTHQPRP	0.38
RRIRQRPPRLPRPRPRPHTMPRP	-0.9
RRIRERPPRLPRPRPRPVWSPRP	0.158
RRIRIRPPRLPRPRPRPDHKPRP	-0.413
RRIRSRPPRLPRPRPRPWYQPRP	-0.314
RRIRDRPPRLPRPRPRPGISPRP	0.0115
RRIRSRPPRLPRPRPRPDTTPRP	-0.191
RRIRRRPPRLPRPRPRPSEIPRP	0.0269
RRIRQRPPRLPRPRPRPCGYPRP	-0.0698
RRIRGRPPRLPRPRPRPKYSPRP	-0.156
RRIRYRPPRLPRPRPRPVFMPRP	-0.484
RRIRHRPPRLPRPRPRPTVYPRP	-0.219
RRIRHRPPRLPRPRPRPRMHPRP	-0.0289

Sequence	shrunken log2 fold change
RRIRLRPPRLPRPRPRPELFPRP	0.303
RRIRARPPRLPRPRPRPWSWPRP	0.109
RRIRGRPPRLPRPRPRPELKPRP	0.336
RRIRHRPPRLPRPRPRPIIKPRP	-0.279
RRIRARPPRLPRPRPRPGDEPRP	0.393
RRIRMRPPRLPRPRPRPSRSPRP	0.902
RRIRFRPPRLPRPRPRPVLTPRP	-0.213
RRIRLRPPRLPRPRPRPEAYPRP	0.0406
RRIRERPPRLPRPRPRPCWFPRP	-0.0254
RRIRVRPPRLPRPRPRPGPFPRP	-0.0278
RRIRSRPPRLPRPRPRPIEEPRP	0.0156
RRIRIRPPRLPRPRPRPNRPPRP	-0.212
RRIRERPPRLPRPRPRPKLCPRP	0.000831
RRIRGRPPRLPRPRPRPLTPPRP	1.43
RRIRGRPPRLPRPRPRPGPQPRP	0.719
RRIRWRPPRLPRPRPRPYFAPRP	-0.216
RRIRWRPPRLPRPRPRPDAYPRP	0.309
RRIRYRPPRLPRPRPRPYTFPRP	0.041
RRIRCRPPRLPRPRPRPNHDPRP	-0.589
RRIRWRPPRLPRPRPRPHQPPRP	0.145
RRIRSRPPRLPRPRPRPTVYPRP	0.0113
RRIRKRPPRLPRPRPRPQWTPRP	0.0894
RRIRYRPPRLPRPRPRPRNQPRP	-0.32
RRIRYRPPRLPRPRPRPNEFPRP	-0.498
RRIRQRPPRLPRPRPRPMFWPRP	0.0915

Sequence	shrunken log2 fold change
RRIRTRPPRLPRPRPRPNADPRP	-0.00181
RRIRDRPPRLPRPRPRPCYAPRP	0.326
RRIRERPPRLPRPRPRPAWDPRP	0.0257
RRIRQRPPRLPRPRPRPTQTPRP	-0.00783
RRIRWRPPRLPRPRPRPQMTPRP	-0.0595
RRIRGRPPRLPRPRPRPDEAPRP	1.56
RRIRWRPPRLPRPRPRPYSTPRP	-0.225
RRIRDRPPRLPRPRPRPMIYPRP	-0.0383
RRIRARPPRLPRPRPRPMYHPRP	-0.215
RRIRHRPPRLPRPRPRPKTRPRP	-0.0214
RRIRMRPPRLPRPRPRPMNAPRP	-0.0277
RRIRNRPPRLPRPRPRPSYFPRP	-0.699
RRIRKRPPRLPRPRPRPDCLPRP	-0.116
RRIRMRPPRLPRPRPRPFMYPRP	-0.219
RRIRCRPPRLPRPRPRPHCCPRP	0.0538
RRIRRRPPRLPRPRPRPAVVPRP	0.518
RRIRVRPPRLPRPRPRPYQDPRP	-1.42
RRIRERPPRLPRPRPRPRYYPRP	-0.206
RRIRERPPRLPRPRPRPRGGPRP	0.376
RRIRKRPPRLPRPRPRPALTPRP	0.622
RRIRHRPPRLPRPRPRPQDVPRP	0.0527
RRIRERPPRLPRPRPRPGGHPRP	0.0363
RRIRTRPPRLPRPRPRPVINPRP	-0.189
RRIRDRPPRLPRPRPRPFYPPRP	-0.109
RRIRSRPPRLPRPRPRPQIGPRP	-1.62

Sequence	shrunken log2 fold change
RRIRHRPPRLPRPRPRPRVIPRP	-0.12
RRIRRRPPRLPRPRPRPLGLPRP	0.363
RRIRWRPPRLPRPRPRPCCIPRP	0.0413
RRIRWRPPRLPRPRPRPYHRPRP	-0.201
RRIRYRPPRLPRPRPRPDKHPRP	-0.692
RRIRERPPRLPRPRPRPASMPRP	0.0524
RRIRHRPPRLPRPRPRPVKRPRP	-0.226
RRIRIRPPRLPRPRPRPMMVPRP	-0.00145
RRIRIRPPRLPRPRPRPTRPPRP	0.763
RRIRKRPPRLPRPRPRPCACPRP	0.0293
RRIRPRPPRLPRPRPRPWDRPRP	0.0969
RRIRHRPPRLPRPRPRPLAHPRP	0.0514
RRIRGRPPRLPRPRPRPGPNPRP	0.941
RRIRDRPPRLPRPRPRPDTGPRP	0.018
RRIRFRPPRLPRPRPRPMMWPRP	-0.011
RRIRTRPPRLPRPRPRPNDCPRP	0.0184
RRIRFRPPRLPRPRPRPLSMPRP	-0.363
RRIRKRPPRLPRPRPRPKHGPRP	0.157
RRIRERPPRLPRPRPRPIENPRP	0.0371
RRIRHRPPRLPRPRPRPGKEPRP	-0.0977
RRIRGRPPRLPRPRPRPSNYPRP	-0.0111
RRIRNRPPRLPRPRPRPGREPRP	0.588
RRIRIRPPRLPRPRPRPNFNPRP	-0.745
RRIRRRPPRLPRPRPRPETCPRP	-0.00655
RRIRVRPPRLPRPRPRPVMTPRP	0.0124
